Experimental data published in US20250189530A1 (STCUBE, published 2025).
Like-named read-outs stand apart in the source and are kept apart here.

T1: BTN1A1 Peptide 4 (human)
T1 construct: also called BTN1A1-pep4- WT; Pep4
T1 peptide: EVEVGDRTDWAIGVC

T2: hBTN1A1 ICD (human, UniProt Q13410 270-526)
T2 sequence: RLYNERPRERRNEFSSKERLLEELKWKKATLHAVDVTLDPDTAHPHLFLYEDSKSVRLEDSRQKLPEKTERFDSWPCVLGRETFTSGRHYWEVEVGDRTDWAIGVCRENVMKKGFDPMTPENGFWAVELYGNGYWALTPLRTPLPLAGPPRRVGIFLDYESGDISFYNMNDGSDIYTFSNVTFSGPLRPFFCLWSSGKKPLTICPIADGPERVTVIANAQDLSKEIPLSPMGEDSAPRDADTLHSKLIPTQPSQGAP

T3: denatured hBTN1A1 ICD (human, UniProt Q13410 270-526)
T3 construct: Same protein as hBTN1A1 ICD, denatured before the ELISA; also called hBTN1A1 ICD denatured; Denatured ICD
T3 sequence: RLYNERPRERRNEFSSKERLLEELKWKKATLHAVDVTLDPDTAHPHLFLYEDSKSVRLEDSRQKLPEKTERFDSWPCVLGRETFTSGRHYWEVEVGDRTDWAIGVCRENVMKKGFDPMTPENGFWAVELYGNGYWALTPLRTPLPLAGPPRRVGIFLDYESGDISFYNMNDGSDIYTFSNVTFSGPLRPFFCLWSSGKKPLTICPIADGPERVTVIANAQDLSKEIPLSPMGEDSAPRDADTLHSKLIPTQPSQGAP

T4: hBTN1A1-His (human, UniProt Q13410)
T4 construct: also called human BTN1A1-His
T4 sequence (antigen, looked up): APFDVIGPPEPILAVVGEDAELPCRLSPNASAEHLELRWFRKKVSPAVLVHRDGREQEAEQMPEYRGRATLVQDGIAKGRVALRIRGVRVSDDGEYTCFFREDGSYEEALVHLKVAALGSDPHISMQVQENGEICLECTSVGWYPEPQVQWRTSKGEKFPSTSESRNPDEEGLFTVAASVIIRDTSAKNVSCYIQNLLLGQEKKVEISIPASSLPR

T5: ECD1 Peptide
T5 construct: also called BTN1A1 ECD1
T5 peptide: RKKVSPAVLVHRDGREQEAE


Experiments:
BTN1A1 Peptide 4 [1] = molecular target: T1, BTN1A1 Peptide 4; test: ELISA clone screen, GenScript, negative control
hBTN1A1 ICD [2] = molecular target: T2, hBTN1A1 ICD; test: ELISA clone screen, GenScript, negative control
denatured hBTN1A1 ICD [3] = molecular target: T3, denatured hBTN1A1 ICD; test: ELISA clone screen, GenScript, negative control
BTN1A1 Peptide 4 [4] = molecular target: T1, BTN1A1 Peptide 4; test: ELISA clone screen, STCube, negative control
hBTN1A1 ICD [5] = molecular target: T2, hBTN1A1 ICD; test: ELISA clone screen, STCube, negative control
denatured hBTN1A1 ICD [6] = molecular target: T3, denatured hBTN1A1 ICD; test: ELISA clone screen, STCube, negative control
KLH Only = KLH Only (keyhole limpet); test: ELISA clone screen
KLH Only (keyhole limpet), sequence (Q10583 17-3414): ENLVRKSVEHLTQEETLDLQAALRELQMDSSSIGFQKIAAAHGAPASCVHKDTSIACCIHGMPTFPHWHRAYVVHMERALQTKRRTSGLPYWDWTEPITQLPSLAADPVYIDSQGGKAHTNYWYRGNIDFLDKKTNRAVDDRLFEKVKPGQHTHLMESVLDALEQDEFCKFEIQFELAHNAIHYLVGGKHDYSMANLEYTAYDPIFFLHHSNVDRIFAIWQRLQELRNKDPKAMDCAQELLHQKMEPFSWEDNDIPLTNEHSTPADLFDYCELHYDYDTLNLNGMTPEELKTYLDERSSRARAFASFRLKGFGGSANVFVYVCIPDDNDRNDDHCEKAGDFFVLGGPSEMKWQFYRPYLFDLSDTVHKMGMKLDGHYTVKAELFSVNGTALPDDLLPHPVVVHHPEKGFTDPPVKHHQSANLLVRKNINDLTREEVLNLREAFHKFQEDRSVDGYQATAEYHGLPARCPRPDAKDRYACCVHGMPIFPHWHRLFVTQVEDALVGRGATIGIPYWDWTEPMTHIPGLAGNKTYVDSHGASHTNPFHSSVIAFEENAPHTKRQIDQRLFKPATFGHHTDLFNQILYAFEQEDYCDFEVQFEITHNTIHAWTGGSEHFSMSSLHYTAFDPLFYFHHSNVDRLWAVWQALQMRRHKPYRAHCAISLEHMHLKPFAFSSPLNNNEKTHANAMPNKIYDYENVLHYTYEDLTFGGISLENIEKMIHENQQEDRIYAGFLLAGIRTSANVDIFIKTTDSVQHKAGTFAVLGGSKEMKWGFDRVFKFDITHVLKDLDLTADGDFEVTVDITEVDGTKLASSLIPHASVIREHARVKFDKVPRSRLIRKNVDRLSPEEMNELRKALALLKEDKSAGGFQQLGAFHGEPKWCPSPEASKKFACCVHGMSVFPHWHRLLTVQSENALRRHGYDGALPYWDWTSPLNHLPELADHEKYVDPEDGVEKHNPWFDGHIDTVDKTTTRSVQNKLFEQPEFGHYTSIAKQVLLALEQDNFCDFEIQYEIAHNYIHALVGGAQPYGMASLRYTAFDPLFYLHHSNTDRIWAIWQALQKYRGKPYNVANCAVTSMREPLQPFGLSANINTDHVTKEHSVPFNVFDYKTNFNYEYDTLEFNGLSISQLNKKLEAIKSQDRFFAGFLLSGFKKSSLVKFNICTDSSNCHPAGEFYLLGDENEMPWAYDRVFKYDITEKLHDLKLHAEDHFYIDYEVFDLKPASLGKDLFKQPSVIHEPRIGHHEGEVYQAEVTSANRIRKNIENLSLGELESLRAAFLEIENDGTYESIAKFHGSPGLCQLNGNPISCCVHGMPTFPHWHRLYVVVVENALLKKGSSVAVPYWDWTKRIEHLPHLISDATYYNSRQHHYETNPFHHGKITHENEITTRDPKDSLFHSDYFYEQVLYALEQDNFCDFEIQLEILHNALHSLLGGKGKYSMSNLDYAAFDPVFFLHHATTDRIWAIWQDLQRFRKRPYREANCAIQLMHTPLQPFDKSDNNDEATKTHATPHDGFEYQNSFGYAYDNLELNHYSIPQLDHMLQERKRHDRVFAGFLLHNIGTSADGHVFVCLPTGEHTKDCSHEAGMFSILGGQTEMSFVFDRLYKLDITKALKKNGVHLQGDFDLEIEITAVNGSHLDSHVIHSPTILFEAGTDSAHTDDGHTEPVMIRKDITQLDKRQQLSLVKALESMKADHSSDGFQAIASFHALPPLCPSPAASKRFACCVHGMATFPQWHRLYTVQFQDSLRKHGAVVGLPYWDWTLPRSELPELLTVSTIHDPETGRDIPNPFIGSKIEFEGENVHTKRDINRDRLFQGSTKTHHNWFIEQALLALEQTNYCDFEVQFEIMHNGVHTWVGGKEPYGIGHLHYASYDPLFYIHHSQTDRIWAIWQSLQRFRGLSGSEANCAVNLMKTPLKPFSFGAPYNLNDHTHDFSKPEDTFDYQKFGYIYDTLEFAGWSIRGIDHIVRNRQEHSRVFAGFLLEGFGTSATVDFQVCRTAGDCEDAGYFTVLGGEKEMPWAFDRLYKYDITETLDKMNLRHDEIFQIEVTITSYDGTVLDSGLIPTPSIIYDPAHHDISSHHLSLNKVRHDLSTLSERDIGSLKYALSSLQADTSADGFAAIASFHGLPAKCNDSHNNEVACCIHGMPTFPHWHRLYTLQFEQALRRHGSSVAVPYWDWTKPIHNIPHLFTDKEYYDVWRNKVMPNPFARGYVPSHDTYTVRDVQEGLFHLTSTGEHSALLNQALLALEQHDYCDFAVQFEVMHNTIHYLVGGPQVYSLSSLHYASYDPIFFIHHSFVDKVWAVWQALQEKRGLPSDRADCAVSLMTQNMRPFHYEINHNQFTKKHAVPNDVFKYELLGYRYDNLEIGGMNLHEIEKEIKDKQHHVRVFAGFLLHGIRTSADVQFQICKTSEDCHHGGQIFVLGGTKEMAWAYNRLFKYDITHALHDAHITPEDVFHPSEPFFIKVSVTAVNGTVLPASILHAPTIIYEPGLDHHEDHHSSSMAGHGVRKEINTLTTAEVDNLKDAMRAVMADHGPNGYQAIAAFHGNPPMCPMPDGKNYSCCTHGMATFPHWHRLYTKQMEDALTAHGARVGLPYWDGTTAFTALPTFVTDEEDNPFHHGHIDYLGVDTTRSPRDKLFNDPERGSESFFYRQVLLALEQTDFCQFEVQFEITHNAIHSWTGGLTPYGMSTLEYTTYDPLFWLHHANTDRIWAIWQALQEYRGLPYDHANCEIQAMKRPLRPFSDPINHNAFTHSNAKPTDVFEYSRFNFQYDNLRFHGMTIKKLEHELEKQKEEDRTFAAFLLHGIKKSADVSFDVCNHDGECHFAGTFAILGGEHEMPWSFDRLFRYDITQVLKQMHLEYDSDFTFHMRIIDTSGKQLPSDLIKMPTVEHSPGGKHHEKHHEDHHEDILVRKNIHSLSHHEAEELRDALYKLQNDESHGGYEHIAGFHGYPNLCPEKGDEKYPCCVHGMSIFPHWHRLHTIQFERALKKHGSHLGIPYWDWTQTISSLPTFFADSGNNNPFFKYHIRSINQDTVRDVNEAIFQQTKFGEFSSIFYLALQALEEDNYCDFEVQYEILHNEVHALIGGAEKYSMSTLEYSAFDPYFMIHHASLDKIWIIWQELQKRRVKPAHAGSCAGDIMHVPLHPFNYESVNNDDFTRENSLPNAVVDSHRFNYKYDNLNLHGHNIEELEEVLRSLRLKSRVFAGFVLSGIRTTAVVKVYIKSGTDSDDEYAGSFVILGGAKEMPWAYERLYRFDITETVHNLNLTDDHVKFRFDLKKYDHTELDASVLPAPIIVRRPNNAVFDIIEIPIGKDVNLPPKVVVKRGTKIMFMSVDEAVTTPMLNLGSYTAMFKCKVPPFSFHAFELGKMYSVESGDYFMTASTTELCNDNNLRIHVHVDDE

hBTN1A1-His [7] = molecular target: T4, hBTN1A1-His; test: ELISA clone screen
ECD1 Peptide = molecular target: T5, ECD1 Peptide; test: ELISA clone screen
hBTN1A1-His [8] = molecular target: T4, hBTN1A1-His; test: ELISA, titration of purified antibody
hBTN1A1-His [9] = molecular target: T4, hBTN1A1-His; test: ELISA, titration of purified antibody; remark: listed apart in the source

ELISA signal (BTN1A1 Peptide 4 [1]) | ELISA signal (hBTN1A1 ICD [2]) | ELISA signal (denatured hBTN1A1 ICD [3]) | ELISA signal (BTN1A1 Peptide 4 [4]) | ELISA signal (hBTN1A1 ICD [5]) | ELISA signal (denatured hBTN1A1 ICD [6]) | O.D. 450 nm (KLH Only) | O.D. 450 nm (hBTN1A1-His [7]) | O.D. 450 nm (ECD1 Peptide) | EC50 (read off the curve) (hBTN1A1-His [8]) [mg/L] | EC50 (read off the curve) (hBTN1A1-His [9]) [mg/L] | Molecule
0.074 | 0.063 | 0.062 | 0.048 | 0.04 | 0.041 |  |  |  |  |  | Negative (control of the clone screen ELISA)
 |  |  |  |  |  | 0.051 | 2.91 | 3.18 | ~0.02 |  | STC85F1-1 (antibody, V domains shown, From immunized New Zealand rabbits; IgG heavy chain and Kappa light chain; Variable domains without signal peptide; also called clone #85F1-1) VH: QSLEESGGRLVTPGGSLTLTCTVSGIDLSRYGVNWVRQAPGKGLEWIGYIGTTSNTYYASWAKGRFTISKTSSTTVDLKMTSLTTEDTATYFCARSVVSPSNSSFWGQGTLVTVSS VL: DPVMTQTPSSTSAAVGGTVTINCQSSQSVYNNKNLSWFQQKPGQPPKLLIYRASTLPSGVPSRFKGSGSGTQFTLTISDLECDDAATYYCAGGYSGDINVFGGGTEVVVK
 |  |  |  |  |  | 0.052 | 2.1 | 2.66 |  | ~0.02 | STC43G3-1 (antibody, V domains shown, From immunized New Zealand rabbits; IgG heavy chain and Kappa light chain; Variable domains without signal peptide; also called clone #43G3-1) VH: QSLEESGGRLVTPGTPLTLTCTVSGIDLSRYGVNWVRQAPGKGLEWIGYIGTTGNTYYASWVNGRFTISKTSTTVELKMTSLTAADTATYFCARSVVSPSNSSFWGQGTLVTVSS VL: DPVMTQTPSSTSAAVGGTVTINCQSSQSVYNNNNLSWFQQKPGQPPKLLIYRASKLPSGVPPRFSGSGSGTQFTLTISSVQCDDAATYFCAGGYSGDINVFGGGTEVVVK
